Experimental data published in IntAct's records for PubMed 22364545.

B1: Fibroblast growth factor 14 (Homo sapiens), Q92915-2 (parent)
chain: MVKPVPLFRRTDFKLLLCNHKDLFFLRVSKLLDCFSPKSMWFLWNIFSKGTHMLQCLCGKSLKKNKNPTDPQLKGIVTRLYCRQGYYLQMHPDGALDGTKDDSTNSTLFNLIPVGLRVVAIQGVKTGLYIAMNGEGYLYPSELFTPECKFKESVFENYYVIYSSMLYRQQESGRAWFLGLNKEGQAMKGNRVKKTKPAAHFLPKPLEVAMYREPSLHDVGETVPKPGVTPSKSTSASAIMNGGKPVNKSKTT

Variants of: B1
Settings: with scn8a_human SCN8A

Row | Variant | effect of a mutation on the interaction
1 | MVKPVPLFRRTDFKLLLCNHKDLFFLRVSKLLDCFSPKSMWFLWNIFSKGTHMLQCLCGKSLKKNKNPTDPQLKGIVTRLYCRQGYYLQMHPDGALDGTKDDSTNSTLFNLIPVGLRVVAIQGVKTGLYIAMNGEGYLYPSELFTPECKFKESVFENNYNIYSSMLYRQQESGRAWFLGLNKEGQAMKGNRVKKTKPAAHFLPKPLEVAMYREPSLHDVGETVPKPGVTPSKSTSASAIMNGGKPVNKSKTT [Y158N;V160N] | decreasing interaction strength
